{
  "source": "paper PMC3759463",
  "about": "(PLoS ONE, 2013)",
  "key": {"HLA-DRB1*15∶01": {"molecular_target": "T1, HLA-DRB1*15∶01 (Homo sapiens, UniProt P01903+P01911)", "T1 construct": "expression of transmembrane-truncated versions of isolated α and in vivo biotinylated β chain molecules in E. coli; made in house", "experiment": "biochemical", "format": "binding", "settings": "C-terminally H6-tagged peptide, read-out: KD (nM) HLA-DRB1*15∶01 + tag"}, "HLA-DRB5*01∶01": {"molecular_target": "T2, HLA-DRB5*01∶01 (Homo sapiens, UniProt P01903+Q30154)", "T2 construct": "expression of transmembrane-truncated versions of isolated α and in vivo biotinylated β chain molecules in E. coli; made in house", "experiment": "biochemical", "format": "binding"}, "HLA-DRB1*01∶01": {"molecular_target": "T3, HLA-DRB1*01∶01 (Homo sapiens, UniProt P01903+P01911, A100R/D57E/F55L/F60I/F76Y/I96L/L162R/M171V/P40L/Q125E/R42F/V115G/Y59C)", "T3 construct": "expression of transmembrane-truncated versions of isolated α and in vivo biotinylated β chain molecules in E. coli; made in house", "experiment": "biochemical", "format": "binding", "settings": "C-terminally H6-tagged peptide, read-out: KD (nM) HLA-DRB1*01∶01 + tag"}, "[1]": {"molecular_target": "HLA-DRB1*15∶01 (recombinant HLA-DR alpha chain with FOS zipper paired with HLA-DRB1*15∶01 beta chain with JUN zipper and BSP)", "experiment": "AlphaScreen or HTRF"}, "[2]": {"molecular_target": "HLA-DRB1*01∶01 (recombinant HLA-DR alpha chain with FOS zipper paired with HLA-DRB1*01∶01 beta chain with JUN zipper and BSP)", "experiment": "AlphaScreen or HTRF"}, "[3]": {"molecular_target": "HLA-DRB5*01∶01 (recombinant HLA-DR alpha chain with FOS zipper paired with HLA-DRB5*01∶01 beta chain with JUN zipper and BSP)", "experiment": "AlphaScreen or HTRF"}, "[4]": {"settings": "C-terminally H6-tagged peptide, […], read-out: KD (nM) HLA-DRB5*01∶01 + tag"}},
  "note": "Read-outs that look alike come from different tables or passages of the source. Peptide text beside a SMILES is read from it.",
  "data": [
    {"molecule": "CC(C)C[C@H](NC(=O)[C@H](CCCCN)NC(=O)[C@H](CC(C)C)NC(=O)[C@@H](NC(=O)[C@H](CC(N)=O)NC(=O)[C@H](CCC(N)=O)NC(=O)[C@H](CCCCN)NC(=O)[C@@H](NC(=O)[C@H](Cc1ccc(O)cc1)NC(=O)[C@H](CCCCN)NC(=O)[C@@H](N)Cc1ccc(O)cc1)C(C)C)[C@@H](C)O)C(=O)N[C@@H](C)C(=O)N[C@H](C(=O)N[C@@H](Cc1c[nH]cn1)C(=O)N[C@@H](Cc1c[nH]cn1)C(=O)N[C@@H](Cc1c[nH]cn1)C(=O)N[C@@H](Cc1c[nH]cn1)C(=O)N[C@@H](Cc1c[nH]cn1)C(=O)N[C@@H](Cc1c[nH]cn1)C(=O)O)[C@@H](C)O", "note": "[Influenza A HA306–318 + tag] (H-YKYVKQNTLKLATHHHHHH-OH)", "values": [
      {"measurement": "Kd", "setting": "HLA-DRB1*15∶01", "value": 345, "unit": "nM"},
      {"measurement": "Kd", "setting": "HLA-DRB5*01∶01; [4]", "value": 17, "unit": "nM"}
    ]},
    {"molecule": "CC(C)C[C@H](NC(=O)[C@@H](NC(=O)[C@H](Cc1ccccc1)NC(=O)[C@@H](NC(=O)[C@H](Cc1ccccc1)NC(=O)CNC(=O)[C@@H](N)CC(C)C)C(C)C)[C@@H](C)O)C(=O)N[C@H](C(=O)N[C@H](C(=O)N1CCC[C@H]1C(=O)N[C@@H](CO)C(=O)N[C@@H](CCC(=O)O)C(=O)N[C@@H](CCCNC(=N)N)C(=O)NCC(=O)N[C@@H](Cc1c[nH]cn1)C(=O)N[C@@H](Cc1c[nH]cn1)C(=O)N[C@@H](Cc1c[nH]cn1)C(=O)N[C@@H](Cc1c[nH]cn1)C(=O)N[C@@H](Cc1c[nH]cn1)C(=O)N[C@@H](Cc1c[nH]cn1)C(=O)O)C(C)C)[C@@H](C)O", "note": "[Influenza A MP60–72 + tag] (H-LGFVFTLTVPSERGHHHHHH-OH)", "values": [
      {"measurement": "Kd", "setting": "HLA-DRB1*01∶01", "value": 40, "unit": "nM"},
      {"measurement": "Kd", "setting": "HLA-DRB1*15∶01", "value": 282, "unit": "nM"},
      {"measurement": "Kd", "setting": "HLA-DRB5*01∶01; [4]", "value": 13, "unit": "nM"}
    ]},
    {"molecule": "CC(C)C[C@H](NC(=O)[C@@H](NC(=O)[C@H](Cc1ccccc1)NC(=O)[C@@H](NC(=O)[C@H](Cc1ccccc1)NC(=O)CNC(=O)[C@@H](N)CC(C)C)C(C)C)[C@@H](C)O)C(=O)N[C@H](C(=O)N[C@H](C(=O)N1CCC[C@H]1C(=O)N[C@@H](CO)C(=O)N[C@@H](CCC(=O)O)C(=O)N[C@@H](CCCNC(=N)N)C(=O)NCC(=O)O)C(C)C)[C@@H](C)O", "note": "[Influenza A MP60–72, reference compound]", "values": [
      {"measurement": "Kd", "setting": "HLA-DRB5*01∶01; read-out: KD (nM) HLA-DRB5*01∶01 − tag", "value": 7, "unit": "nM"}
    ]},
    {"molecule": "Hepatitis C (Hep C) peptide NS3_(218–235)", "values": [
      {"measurement": "Kd", "setting": "[1]", "value": 2, "unit": "nM"},
      {"measurement": "Kd", "setting": "[2]", "value": 3, "unit": "nM"}
    ]},
    {"molecule": "Hepatitis C peptide Hep C-NS3_(218–235(H6))", "values": [
      {"measurement": "Kd", "setting": "[3]", "value": 37, "unit": "nM"},
      {"measurement": "Kd", "setting": "[1]", "value": 2, "unit": "nM"},
      {"measurement": "Kd", "setting": "[2]", "value": 5, "unit": "nM"}
    ]},
    {"molecule": "Influenza A peptide HA_(307–318(H6))", "values": [
      {"measurement": "Kd", "setting": "[3]", "value": 17, "unit": "nM"},
      {"measurement": "Kd", "setting": "[1]", "value": 345, "unit": "nM"},
      {"measurement": "Kd", "setting": "[2]", "value": 19, "unit": "nM"}
    ]},
    {"molecule": "Influenza A peptide HA_(307–318)", "values": [
      {"measurement": "Kd", "setting": "[3]", "value": 4, "unit": "nM"},
      {"measurement": "Kd", "setting": "[1]", "value": 25, "unit": "nM"},
      {"measurement": "Kd", "setting": "[2]", "value": 9, "unit": "nM"}
    ]},
    {"molecule": "Influenza A peptide MP_(60–73(H6))", "values": [
      {"measurement": "Kd", "setting": "[3]", "value": 13, "unit": "nM"},
      {"measurement": "Kd", "setting": "[1]", "value": 282, "unit": "nM"},
      {"measurement": "Kd", "setting": "[2]", "value": 40, "unit": "nM"}
    ]},
    {"molecule": "Influenza A peptide MP_(60–73)", "values": [
      {"measurement": "Kd", "setting": "[3]", "value": 7, "unit": "nM"},
      {"measurement": "Kd", "setting": "[1]", "value": 270, "unit": "nM"},
      {"measurement": "Kd", "setting": "[2]", "value": 17, "unit": "nM"}
    ]},
    {"molecule": "cytomegalovirus (CMV) peptide IE1_(211–225(H6))", "values": [
      {"measurement": "Kd", "setting": "[3]", "value": 8, "unit": "nM"},
      {"measurement": "Kd", "setting": "[1]", "value": 127, "unit": "nM"},
      {"measurement": "Kd", "setting": "[2]", "value": 42, "unit": "nM"}
    ]},
    {"molecule": "cytomegalovirus (CMV) peptide IE1_(211–225)", "values": [
      {"measurement": "Kd", "setting": "[3]", "value": 8, "unit": "nM"}
    ]}
  ]
}
